The values below come from paper PMC10897365, “Molecular mechanism of allosteric activation of the CRISPR ribonuclease Csm6 by cyclic tetra-adenylate” (The EMBO Journal, 2023).

In one data set the target is T1, TtCsm6 (Thermus thermophilus, UniProt Q53W17).
T1 construct: gene csm6; synthesized gene, N-terminal 6xHis tag removed with PreScission protease; expressed in E. coli Rosetta (DE3); homodimer; CARF-HTH-HEPN
T1 sequence (Q53W17 1-464): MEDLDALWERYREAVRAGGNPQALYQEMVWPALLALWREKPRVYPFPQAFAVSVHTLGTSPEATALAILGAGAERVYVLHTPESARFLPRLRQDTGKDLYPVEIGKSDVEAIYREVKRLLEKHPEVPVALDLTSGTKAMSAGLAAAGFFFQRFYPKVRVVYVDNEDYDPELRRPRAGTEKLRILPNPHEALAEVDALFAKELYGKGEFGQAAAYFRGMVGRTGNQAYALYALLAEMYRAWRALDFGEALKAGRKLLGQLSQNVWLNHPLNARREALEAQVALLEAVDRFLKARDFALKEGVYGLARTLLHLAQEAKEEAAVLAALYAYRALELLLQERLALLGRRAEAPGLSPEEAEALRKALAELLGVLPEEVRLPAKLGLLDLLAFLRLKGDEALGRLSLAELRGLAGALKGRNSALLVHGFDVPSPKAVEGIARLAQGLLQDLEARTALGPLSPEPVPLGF
Kind of data set: crystal structure […] Å (co-crystallised with cA4). The class given is binding. To be noted: post-cleavage state; two A2>P across the CARF dimer interface; pH 8.5, Mg2+ in crystal.

Data set [1] deals with the molecule itself. Kind of data set: crystal structure; TtCsm6 (12 mg/mL) pre-incubated with cA4 1:1.2 for 3 h at room temperature; hanging drop, 25 °C; post-cleavage state with two A2>P bound; homodimer.
Data set [2] concerns the molecule itself. Kind of data set: crystal structure; TtCsm6 K137A (13 mg/mL) alone; hanging drop, 25 °C; apo state, no metal ion in the HEPN domain; homodimer.
Data set [3] concerns the molecule itself. Nature of the data set: crystal structure; TtCsm6 Y161A (10 mg/ml) pre-incubated with cA4 1:1.2 at 4 °C for 30 min; hanging drop, 25 °C; pre-cleavage state with cA4 bound; homodimer.

Take `Nc1ncnc2c1ncn2[C@@H]1O[C@H](CO)[C@@H](OP(=O)(O)OC[C@H]2O[C@@H](n3cnc4c(N)ncnc43)[C@@H]3OP(=O)(O)O[C@@H]32)[C@H]1O` [A2 > P]: the “crystal structure 1.81 Å (co-crystallised with cA4)” value on TtCsm6 was “cA4 in the CARF domain was cleaved into two A2 > P molecules”.

B1: Thermus thermophilus (Tt) Csm6, wild type (enzyme)
chain: MEDLDALWERYREAVRAGGNPQALYQEMVWPALLALWREKPRVYPFPQAFAVSVHTLGTSPEATALAILGAGAERVYVLHTPESARFLPRLRQDTGKDLYPVEIGKSDVEAIYREVKRLLEKHPEVPVALDLTSGTKAMSAGLAAAGFFFQRFYPKVRVVYVDNEDYDPELRRPRAGTEKLRILPNPHEALAEVDALFAKELYGKGEFGQAAAYFRGMVGRTGNQAYALYALLAEMYRAWRALDFGEALKAGRKLLGQLSQNVWLNHPLNARREALEAQVALLEAVDRFLKARDFALKEGVYGLARTLLHLAQEAKEEAAVLAALYAYRALELLLQERLALLGRRAEAPGLSPEEAEALRKALAELLGVLPEEVRLPAKLGLLDLLAFLRLKGDEALGRLSLAELRGLAGALKGRNSALLVHGFDVPSPKAVEGIARLAQGLLQDLEARTALGPLSPEPVPLGF
notes: Csm6 of Thermus thermophilus, GenBank ID 81626039; synthesized cDNA in a modified pET vector; Crystallised after pre-incubation with cA4, which was cleaved to two A2>P in the crystal (post-cleavage state); Homodimer in the crystal; also called WT; source: E. coli Rosetta (DE3), purified (Ni-NTA, 15Q, Superdex 200); not shown: His6, N-terminal, cleaved
For the molecule B1, the binding result in data set [1] is “binds”.

B2: TtCsm6 K137A mutant (enzyme, Thermus thermophilus)
chain: MEDLDALWERYREAVRAGGNPQALYQEMVWPALLALWREKPRVYPFPQAFAVSVHTLGTSPEATALAILGAGAERVYVLHTPESARFLPRLRQDTGKDLYPVEIGKSDVEAIYREVKRLLEKHPEVPVALDLTSGTAAMSAGLAAAGFFFQRFYPKVRVVYVDNEDYDPELRRPRAGTEKLRILPNPHEALAEVDALFAKELYGKGEFGQAAAYFRGMVGRTGNQAYALYALLAEMYRAWRALDFGEALKAGRKLLGQLSQNVWLNHPLNARREALEAQVALLEAVDRFLKARDFALKEGVYGLARTLLHLAQEAKEEAAVLAALYAYRALELLLQERLALLGRRAEAPGLSPEEAEALRKALAELLGVLPEEVRLPAKLGLLDLLAFLRLKGDEALGRLSLAELRGLAGALKGRNSALLVHGFDVPSPKAVEGIARLAQGLLQDLEARTALGPLSPEPVPLGF
notes: Csm6 of Thermus thermophilus, GenBank ID 81626039, with K137A; Homodimer in the crystal; also called apo-TtCsm6 (Ni-free structure); source: E. coli Rosetta (DE3), purified (Ni-NTA, 15Q, Superdex 200); not shown: His6, N-terminal, cleaved
Turning to B2, in data set [2], the binding result is reported as “binds”.

B3: TtCsm6 Y161A mutant (enzyme, Thermus thermophilus)
chain: MEDLDALWERYREAVRAGGNPQALYQEMVWPALLALWREKPRVYPFPQAFAVSVHTLGTSPEATALAILGAGAERVYVLHTPESARFLPRLRQDTGKDLYPVEIGKSDVEAIYREVKRLLEKHPEVPVALDLTSGTKAMSAGLAAAGFFFQRFYPKVRVVAVDNEDYDPELRRPRAGTEKLRILPNPHEALAEVDALFAKELYGKGEFGQAAAYFRGMVGRTGNQAYALYALLAEMYRAWRALDFGEALKAGRKLLGQLSQNVWLNHPLNARREALEAQVALLEAVDRFLKARDFALKEGVYGLARTLLHLAQEAKEEAAVLAALYAYRALELLLQERLALLGRRAEAPGLSPEEAEALRKALAELLGVLPEEVRLPAKLGLLDLLAFLRLKGDEALGRLSLAELRGLAGALKGRNSALLVHGFDVPSPKAVEGIARLAQGLLQDLEARTALGPLSPEPVPLGF
notes: Csm6 of Thermus thermophilus, GenBank ID 81626039, with Y161A; Crystallised with uncleaved cA4 (pre-cleavage state); Homodimer in the crystal; source: E. coli Rosetta (DE3), purified (Ni-NTA, 15Q, Superdex 200); not shown: His6, N-terminal, cleaved
Turning to B3, the binding result in data set [3] is on record as “binds”.
